# Data published in patent publication US10407503B2, “Fully human antibodies and fragments recognizing human c-Met” (THE REGENTS OF THE UNIVERSITY OF CALIFORNIA, priority 2012, dated 2019).
# Biological target: T1, cell surface MET (Homo sapiens, UniProt P08581)
# T1 construct: endogenous in cells; host or cells: Hcc827 or Hcc827-GR6
# Assay: Phage flow cytometry for binding to c-MET expressing cells
# Conditions: phage antibodies; Hcc827 or Hcc827-GR6 cells; FITC anti-M13 detection
# Protocol: (§1) For phage antibodies, flow cytometry was used to confirm their binding to c-MET expressing cells. Bacteria culture containing phage was concentrated 30 times into PBS according to published method (Antibody Engineering Methods and Protocols, Benny K. C. Lo). 2˜5×105 c-MET positive Hcc827 or Hcc827-GR6 cells (Engelman et. al, Science, 2007) were incubated with 100 ul concentrated phage and 30 ul 4% milk-PBS on ice for 1 hour. Cells were then washed using flow buffer (PBS, 1% FBS, 2 mM EDTA), and the binding phage antibodies were detected by FITC conjugated anti-M13 monoclonal antibody (Santa Cruz Biotechnology, Cat# sc-53005 Fitc).
# 93 clones were randomly picked after 3 rounds of panning. The phage-containing supernatant was used for phage ELISA. Top 64 clones with highest A405 signal were sequenced, among which 19 distinctive clones with different sequences were identified. These distinctive clones were then tested for binding to cell surface MET by phage flow experiments. 8 of these clones show good binding to cell surface MET and were selected for the subsequent purification and characterizations.
# T1 sequence (P08581 25-1390): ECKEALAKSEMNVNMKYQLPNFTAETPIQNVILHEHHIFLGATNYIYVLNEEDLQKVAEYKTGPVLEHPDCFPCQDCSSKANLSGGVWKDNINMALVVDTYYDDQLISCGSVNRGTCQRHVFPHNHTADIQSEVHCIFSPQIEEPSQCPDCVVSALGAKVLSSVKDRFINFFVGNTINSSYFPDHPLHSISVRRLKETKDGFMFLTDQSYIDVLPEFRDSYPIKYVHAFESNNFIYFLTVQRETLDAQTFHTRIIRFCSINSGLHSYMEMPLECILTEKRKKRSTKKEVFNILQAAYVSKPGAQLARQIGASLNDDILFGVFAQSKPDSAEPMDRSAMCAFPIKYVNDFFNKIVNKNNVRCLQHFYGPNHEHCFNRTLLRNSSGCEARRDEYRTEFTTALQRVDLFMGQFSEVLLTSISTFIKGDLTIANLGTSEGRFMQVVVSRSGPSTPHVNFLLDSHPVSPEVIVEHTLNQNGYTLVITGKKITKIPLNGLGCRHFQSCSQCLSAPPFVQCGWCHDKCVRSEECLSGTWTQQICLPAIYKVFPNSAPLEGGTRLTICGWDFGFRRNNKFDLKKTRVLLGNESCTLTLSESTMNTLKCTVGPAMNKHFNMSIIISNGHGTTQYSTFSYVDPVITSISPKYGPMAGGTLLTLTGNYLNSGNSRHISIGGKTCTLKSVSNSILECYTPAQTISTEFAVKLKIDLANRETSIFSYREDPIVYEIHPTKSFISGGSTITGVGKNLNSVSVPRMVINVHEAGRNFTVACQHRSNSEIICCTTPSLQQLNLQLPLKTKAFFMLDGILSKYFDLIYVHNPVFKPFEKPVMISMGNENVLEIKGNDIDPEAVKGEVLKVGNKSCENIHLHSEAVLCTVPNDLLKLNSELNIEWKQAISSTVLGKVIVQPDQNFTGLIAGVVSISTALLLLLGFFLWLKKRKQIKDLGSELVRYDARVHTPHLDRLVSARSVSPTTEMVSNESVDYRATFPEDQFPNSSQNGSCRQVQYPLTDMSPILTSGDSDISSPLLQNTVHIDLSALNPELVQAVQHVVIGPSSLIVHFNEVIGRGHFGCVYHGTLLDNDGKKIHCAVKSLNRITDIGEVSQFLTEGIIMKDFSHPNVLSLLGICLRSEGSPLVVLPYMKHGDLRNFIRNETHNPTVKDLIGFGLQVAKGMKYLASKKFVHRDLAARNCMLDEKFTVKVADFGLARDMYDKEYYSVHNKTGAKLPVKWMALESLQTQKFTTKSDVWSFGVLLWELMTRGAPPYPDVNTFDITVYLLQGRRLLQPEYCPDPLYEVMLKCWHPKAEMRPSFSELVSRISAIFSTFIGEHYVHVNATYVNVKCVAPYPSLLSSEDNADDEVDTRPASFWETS
row,Molecule,binding to cell surface MET
1,"G1 ScFv antibody: human anti-c-Met ScFv comprising SEQ ID NO:30; tested as phage-displayed clone (protein, phage-displayed; synthetic G1 ScFv sequence) scFv: QVQLQESGGGVVQPGGSLRLSCAASGFTFSSYSMNWVRQAPGKGLEWVSSISSSSSYIYYADSVKGRFTISRDNAKNSLYLQMNSLRAEDTAVYYCARDLPSDDYGDYDYYYYGMDVWGQGTTVTVSSGGGGGSGGGGSGGGGSQSVLTQPPSASGTPGQRVTLFCSGSSSNIASNSVKWYQQPPQRAPKLLMFSDDQRPSGVPVRFSASKSGTSASLAISGLQSEDEADYYCAAWDDSLNAEVFGGGTKVTVLG",can bind to cell surface MET
2,"C2 ScFv antibody: human anti-c-Met ScFv comprising SEQ ID NO:26; tested as phage-displayed clone (protein, phage-displayed; synthetic C2 ScFv sequence) scFv: QVQLQESGGGLVQPGGSLRLSCAASGFTFSSYAMSWVRQAPGKGLEWVSAISGSGGSTYYADSVKGRFTISRDNSKNTLYLQMNSLRAEDTAVYYCASQHVGEQSRYFDYWGQGTLVTVSSGGGGGSGGGGSGGGGSDIVMTQSPSSLSASIGDRVTITCRASHSISSYVNWYQKKPGKAPNLLIYAASYLPRGVPSRFSGSGLGTDFTLTISNLQPEDFATYYCQESYSTPYSFGQGTKVDIKR",can bind to cell surface MET
3,"F11 ScFv antibody: human anti-c-Met ScFv comprising SEQ ID NO:29; tested as phage-displayed clone (protein, phage-displayed; synthetic F11 ScFv sequence) scFv: QVQLQESGGGLLQPGGSLRLSCAASRFTFSNYAMSWVRQAPGKGLEWVSAISGSGASTYYADSVKGRFTISRDNSKNTLYLQMNSLRAEDTAVYYCSNLYGDYDYWGQGTLVTVSSGGGGGSGGGGSGGGGSQSVLTQPASVSGSPGQSITISCTGTSSDVGGYNYVSWYQQHPGKAPKLMIYDVSNRPSGVSNRFSGSKSGNTASLTISGLQAEDEADYYCSSYTSSSTLLFGGGTKLTVLG",can bind to cell surface MET
4,"H5 ScFv antibody: human anti-c-Met ScFv comprising SEQ ID NO:32; tested as phage-displayed clone (protein, phage-displayed; synthetic H5 ScFv sequence) scFv: QVQLQESGGGLVQPGGSLRLSCAASGFTFSNYAMSWVRQAPGKGLEWVSAISGSGGSTYYADSVKGRFTISRDNSKNTLYLQMNSLRAEDTAVYYCAKDRFRAAAYWGQGTLVTVSSGGGGGSGGGGSGGGGSQSVLTQPPSVSAAPGQKVTISCTGSSSNIGAGYDVHWYQQLPGTAPKLLIYGNSNRPSGVPDRFSGSKSGTSASLAISGLQSEDEADYYCAAWDDILNGEIFGGGTKVTVLG",can bind to cell surface MET
5,"E9 ScFv antibody: human anti-c-Met ScFv comprising SEQ ID NO:27; tested as phage-displayed clone (protein, phage-displayed; synthetic E9 ScFv sequence) scFv: QVQLQESGGGVVQPGRSLRLSCAASGFTFSSYGMHWVRQAPGKGLEWVSAIGSSGGSTHDADTVKGRFTISRDNAKNSLYLQMNSLRAEDTAVYYCARDRARGFDYWGQGTLVTVSSGGGGGSGGGGSGGGGSEIVLTQSPSTLSASIGDRVTITCRASQGISSYLAWYQQKPGKAPKLLIYGASSLQSGVPSRFSGRGSGADFTLTISSLQPEDFATYYCQQLISYPLTFGGGTKVEIKR",can bind to cell surface MET
6,"F1 ScFv antibody: human anti-c-Met ScFv comprising SEQ ID NO:28; tested as phage-displayed clone (protein, phage-displayed; synthetic F1 ScFv sequence) scFv: QVQLVQSGAEVKKPGASVKVSCKASGYTFTDYYMHWVRQAPGEGLEWMGWMNPNSGGTNYAQKFQGRVTMTRDTSISTAYMELSRLRSDDTAVYYCARSHYWDSWSPGTLVTVSSGGGGGSGGGGSGGGGSSALTQPASVSGSPGQSITISCTGTSGDVGGYNYVSWYQQHPGKAPKLMIYDVSNRPSGVSNRFSGSKSGNTASLTISGLQAEDEADYYCTSYAGSRNLVFGGGTKLTVLG",can bind to cell surface MET

# Biological target: T2, c-MET on the surface of Hcc827 or Hcc827-GR6 cells (human, UniProt P08581 25-1390)
# T2 construct: whole, on cells; The cells express the receptor endogenously, and MET is amplified in Hcc827-GR6; also called cell surface MET
# T2 sequence (P08581 25-1390): as the sequence (P08581 25-1390) above
# Assay: phage flow cytometry on Hcc827-GR6 cells, bound phage detected with FITC anti-M13 antibody
# Conditions: not given
# Protocol: as §1, with “$2 \sim 5 \times 10^5$” for “2˜5×105”
row,Molecule,binding result
1,"G1 ScFv antibody (phage-displayed) (scFv, The fusion to the phage coat protein is not described) scFv: QVQLQESGGGVVQPGGSLRLSCAASGFTFSSYSMNWVRQAPGKGLEWVSSISSSSSYIYYADSVKGRFTISRDNAKNSLYLQMNSLRAEDTAVYYCARDLPSDDYGDYDYYYYGMDVWGQGTTVTVSSGGGGGSGGGGSGGGGSQSVLTQPPSASGTPGQRVTLFCSGSSSNIASNSVKWYQQPPQRAPKLLMFSDDQRPSGVPVRFSASKSGTSASLAISGLQSEDEADYYCAAWDDSLNAEVFGGGTKVTVLG",binds
2,"C2 ScFv antibody (phage-displayed) (scFv, The fusion to the phage coat protein is not described) scFv: QVQLQESGGGLVQPGGSLRLSCAASGFTFSSYAMSWVRQAPGKGLEWVSAISGSGGSTYYADSVKGRFTISRDNSKNTLYLQMNSLRAEDTAVYYCASQHVGEQSRYFDYWGQGTLVTVSSGGGGGSGGGGSGGGGSDIVMTQSPSSLSASIGDRVTITCRASHSISSYVNWYQKKPGKAPNLLIYAASYLPRGVPSRFSGSGLGTDFTLTISNLQPEDFATYYCQESYSTPYSFGQGTKVDIKR",binds
3,"F11 ScFv antibody (phage-displayed) (scFv, The fusion to the phage coat protein is not described) scFv: QVQLQESGGGLLQPGGSLRLSCAASRFTFSNYAMSWVRQAPGKGLEWVSAISGSGASTYYADSVKGRFTISRDNSKNTLYLQMNSLRAEDTAVYYCSNLYGDYDYWGQGTLVTVSSGGGGGSGGGGSGGGGSQSVLTQPASVSGSPGQSITISCTGTSSDVGGYNYVSWYQQHPGKAPKLMIYDVSNRPSGVSNRFSGSKSGNTASLTISGLQAEDEADYYCSSYTSSSTLLFGGGTKLTVLG",binds
4,"H5 ScFv antibody (phage-displayed) (scFv, The fusion to the phage coat protein is not described) scFv: QVQLQESGGGLVQPGGSLRLSCAASGFTFSNYAMSWVRQAPGKGLEWVSAISGSGGSTYYADSVKGRFTISRDNSKNTLYLQMNSLRAEDTAVYYCAKDRFRAAAYWGQGTLVTVSSGGGGGSGGGGSGGGGSQSVLTQPPSVSAAPGQKVTISCTGSSSNIGAGYDVHWYQQLPGTAPKLLIYGNSNRPSGVPDRFSGSKSGTSASLAISGLQSEDEADYYCAAWDDILNGEIFGGGTKVTVLG",binds
5,"E9 ScFv antibody (phage-displayed) (scFv, The fusion to the phage coat protein is not described) scFv: QVQLQESGGGVVQPGRSLRLSCAASGFTFSSYGMHWVRQAPGKGLEWVSAIGSSGGSTHDADTVKGRFTISRDNAKNSLYLQMNSLRAEDTAVYYCARDRARGFDYWGQGTLVTVSSGGGGGSGGGGSGGGGSEIVLTQSPSTLSASIGDRVTITCRASQGISSYLAWYQQKPGKAPKLLIYGASSLQSGVPSRFSGRGSGADFTLTISSLQPEDFATYYCQQLISYPLTFGGGTKVEIKR",binds
